The target of assay [1] is human P-cadherin, cell surface-expressed on NCI-H1650 adenocarcinoma cells (Homo sapiens (Human).) (UniProt P22223).
Assay [2] concerns the target cynomolgus monkey P-cadherin extracellular domain (ECD) (Macaca fascicularis). The assay can be described thus: KinExA; recombinant cynomolgus monkey P-cadherin; PBS pH 7.4 with MgCl2, CaCl2 and 1 mg/mL BSA; PMMA beads; 4 °C for 2 h.
The target of assay [3] is human P-cadherin expressed on the surface of CHO cells (Homo sapiens) (UniProt P22223). The assay is described as follows: KinExA; human P-cadherin expressed on the surface of CHO cells; PBS pH 7.4 with MgCl2, CaCl2 and 1 mg/mL BSA; 4 °C for 2 h.
Assay [4] deals with human P-cadherin-Fc (recombinant human P-cadherin ECD protein) (Homo sapiens (Human).) (UniProt P22223). The assay is described as follows: ELISA; cadherin-Fc, P-cadherin His or CD3 epsilon-delta protein coated at 1 or 2 µg/mL; sample in 3% milk/PBS + Ca2+ and Mg2+, 1 h at room temperature.
The target of assay [5] is soluble human CD3 epsilon-delta heterodimer (Homo sapiens (Human).) (UniProt P07766). The description is as above.
Chain of UniProt P07766 (P07766 23-126, stated change not applied, chain 1 of 2): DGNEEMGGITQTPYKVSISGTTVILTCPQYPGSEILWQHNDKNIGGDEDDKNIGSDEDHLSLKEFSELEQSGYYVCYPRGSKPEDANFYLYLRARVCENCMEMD
Chain of UniProt P07766 (P04234 22-105, stated change not applied, chain 2 of 2, further chain): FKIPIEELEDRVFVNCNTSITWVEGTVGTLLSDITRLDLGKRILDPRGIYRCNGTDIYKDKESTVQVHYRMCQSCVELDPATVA
Assay [6] addresses human P-cadherin, cell surface-expressed on NCI-H1650 adenocarcinoma cells (Homo sapiens (Human).) (UniProt P22223). The assay is described as follows: ELISA; cell binding ELISA on a confluent monolayer of NCI-H1650 cells; DART in 3% milk/PBS + Ca2+ and Mg2+, 1 h at room temperature; HRP-labelled secondary antibody.
Assay [7] addresses cynomolgus monkey P-cadherin extracellular domain (ECD) (Macaca fascicularis). The assay can be described thus: SPR; Biacore 3000 and T-200; P-cadherin or human CD3 protein immobilised on CM5 by amine coupling (~75–300 RU); DART injected in two-fold series 100 to 6.25 nM; TBS-P+ (10 mM Tris pH 7.4, 150 mM NaCl, 2 mM CaCl2, 0.1 mg/mL BSA, 0.05% P20); global 1:1 Langmuir fit.
Assay [8] deals with human P-cadherin-Fc (recombinant human P-cadherin ECD protein) (Homo sapiens (Human).) (UniProt P22223). The assay is described as above.
For assay [9], the target named is soluble human CD3 epsilon-delta heterodimer (Homo sapiens (Human).) (UniProt P07766). Described as above.

Where only a bound is given, the exact number is not on record here.

From paper PMC6698862 come the findings set out here.

With “PF-06671008 (anti-P-cadherin LP-DART #153) (bispecific antibody)”, the redirected killing of DU145 cells by human PBMCs (LDH release, 24 h, E:T 30:1), EC50 in assay [1] was found to be 0.0031 nM. Further, in [1], the redirected killing of HCT-116 cells by human PBMCs (LDH release, 24 h, E:T 30:1), EC50 turned out to be 0.123 nM. The Kd in assay [2] is 0.352 nM; in assay [3] it was 0.176 nM; in [7] it was 0.521 nM; in assay [8], over 1 nM; in assay [9], 11.5 nM. Moreover, the EC50 in [4] amounted to 0.92 nM; in [5], 4.37 nM; in assay [6], 0.593 nM. In [7], this substance registered a koff of 0.000205 s⁻¹. Moreover, the kon in assay [7] amounted to 437000 M⁻¹ s⁻¹.
